Earlier results, collected in PMC11678748.

Molecular target: KCCYSL peptide (synthetic construct)

For HER2 (from UniProt P04626), the Kd is given as 295 nM.
